Reference: PMC2654206

B1: BsLuxS (Co-BsLuxS) (Bacillus subtilis subsp. subtilis str. 168) (protein)
chain: MPSVESFELDHNAVVAPYVRHCGVHKVGTDGVVNKFDIRFCQPNKQAMKPDTIHTLEHLLAFTIRSHAEKYDHFDIIDISPMGCQTGYYLVVSGEPTSAEIVDLLEDTMKEAVEITEIPAANEKQCGQAKLHDLEGAKRLMRFWLSQDKEELLKVFG

Tests used:
[1] = system: N[C@@H](CCSC[C@@H](O)C(=O)[C@@H](O)CO)C(=O)O; experiment: homocysteine release, DTNB assay; format: biochemical, Vibrio campbellii; details: Co(II) enzyme
[2] = system: N[C@@H](CCSC[C@@H](O)C(=O)[C@@H](O)CO)C(=O)O; experiment: purified protein; details: Co(II) enzyme
Cys83 = Cys83 (UniProt position 83, ISPMGCRTGFY); details: free enzyme (no substrate or ligand bound); metal form not stated; cited from earlier work
[3] = substrate: N[C@@H](CCSC[C@@H](O)C(=O)[C@@H](O)CO)C(=O)O; experiment: homocysteine release, DTNB assay; format: biochemical, Bacillus subtilis; details: Co(II) enzyme

| Molecule | Km [1] | kcat [1] | kcat/Km [1] | further results |
| --- | --- | --- | --- | --- |
| VhLuxS (Co-VhLuxS) (Vibrio campbellii ATCC BAA-1116; H11Q) | 520 ± 60 µM | 0.024 ± 0.002 s⁻¹ | 47 M⁻¹ s⁻¹ | – |
| VhLuxS (Co-VhLuxS) (Vibrio campbellii ATCC BAA-1116; C83A) | 700 ± 120 µM | 0.022 ± 0.002 s⁻¹ | 31 M⁻¹ s⁻¹ | – |
| VhLuxS (Co-VhLuxS) (Vibrio campbellii ATCC BAA-1116; R39M) | 150 ± 20 µM | 0.016 ± 0.001 s⁻¹ | 110 M⁻¹ s⁻¹ | – |
| VhLuxS (Co-VhLuxS) (Vibrio campbellii ATCC BAA-1116; E57A) | 98 ± 13 µM | 0.012 ± 0.001 s⁻¹ | 120 M⁻¹ s⁻¹ | – |
| VhLuxS (Co-VhLuxS) (Vibrio campbellii ATCC BAA-1116) | – | – | – | Km [2]: 27 ± 2 µM; kcat [2]: 0.64 ± 0.02 s⁻¹; kcat/Km [2]: 24000 M⁻¹ s⁻¹ |
| S-ribosylhomocysteinase (LuxS), EcLuxS (Escherichia coli) | – | – | – | pKa (Cys83): <6 |
| VhLuxS (Co-VhLuxS) (Vibrio campbellii ATCC BAA-1116; E57D) | 730 ± 120 µM | 0.026 ± 0.003 s⁻¹ | 36 M⁻¹ s⁻¹ | – |
| VhLuxS (Co-VhLuxS) (Vibrio campbellii ATCC BAA-1116; S6A) | 40 ± 3 µM | 0.14 ± 0.01 s⁻¹ | 3400 M⁻¹ s⁻¹ | – |
| B1 | – | – | – | Km [3]: 3.6 ± 0.1 µM; kcat [3]: 0.038 ± 0.001 s⁻¹; kcat/Km [3]: 11000 M⁻¹ s⁻¹ |
